Source: paper PMC4682845 (PLoS ONE, 2015)

Experiments:
[1] = molecular target: the molecule itself; assay: AUC
[2] = molecular target: […]-para-nitroanilide (TQ6-pNA) peptide substrate; assay: ITC + other: steady-state kinetics; details: both partners purified

B1: SARS-CoV main protease (M^pro), wild type (enzyme)
chain: SGFRKMAFPSGKVEGCMVQVTCGTTTLNGLWLDDTVYCPRHVICTAEDMLNPNYEDLLIRKSNHSFLVQAGNVQLRVIGHSMQNCLLRLKVDTSNPKTPKYKFVRIQPGQTFSVLACYNGSPSGVYQCAMRPNHTIKGSFLNGSCGSVGFNIDYDCVSFCYMHHMELPTGVHAGTDLEGKFYGPFVDRQTAQAAGTDTTITLNVLAWLYAAVINGDRWFLNRFTTTLNDFNLVAMKYNYEPLTQDHVDILGPLSAQTGIAVLDMCAALKELLQNGMNGRTILGSTILEDEFTPFDVVRQCSGVTFQ
[1]
  Kd: 700 ± 20 nM
[2]
  koff: 0.084 s⁻¹
  kon: 2460 M⁻¹ s⁻¹
